# Results published in the supplement of paper PMC12764529.
# ± gives the half width of the 95% confidence interval.
# Assay: folding stability dG unfold from chymotrypsin proteolysis; higher = more stable
# How it was run: (§1)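 Designed mini-proteins with no cysteine and under 80 residues were kept only if AlphaFold2 dimer inter-PAE was above 15. In a PA-tagged cDNA display construct, they were digested with trypsin and chymotrypsin and then sequenced. K50 was inferred by Bayesian fitting of counts, and unfolding free energy was derived per protease or combined against a sequence-predicted unfolded-state K50 and a shared folded-state K50.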
row,Sequence,folding stability dG unfold
1,SASLGISKIETSSLPNGTTVVTVTFSKPNLKVTLTKNPDGTITITLSPEVKKLPEEVKKLVEELAAKLSSAG [r14_555_JUSTAS],3.97 ± 0.048 kcal/mol
2,SAGGSAGGTLTIDELKELFPDVTEVKIEEKEETYTDKNGKKRKVKTKVIKVKVNGKEVTIEVKESAGGSAGG [r6_138_TrROS_Hall],0.534 ± 0.13 kcal/mol
3,SAGGSAGGSEITITLDEETGELHITVPESVKEVKIKVNGEEKTVTLKPGQTLTIPLENVEIEESAGGSAGGS [r20_26_TrROS_Hall],1.55 ± 0.063 kcal/mol
4,SAGGEPLFGGSFSAEPYRTADGRLVYIVPEVTLPNGRKARAAVIYDPSTGRPIVVLYLGDKPIVLDASAGGS [r16_766_TrMRF],2.41 ± 0.039 kcal/mol
5,SAGGSAGGAPILPEVKKIGFEKLPNGEYKVTIYVKGGKKLAEITFPPNTTIEQAVEDAIEALKSSAGGSAGG [r6_435_TrMRF],2.38 ± 0.048 kcal/mol
6,SAGGGMPTSIVLPLTVSPENVEEAIAALKAQLEAQGYTLLEVNPVKDGNTWKLRAVFRAPDGTLVTDESAGG [r13_421_JUSTAS],3.313 ± 0.017 kcal/mol
7,SAGGSMTLTFTDPSTGTTTTVTKLPNGKYVVTTTTTTSTNPEVSPTGETVGPATTTTTTVLPPAELSAGGSA [r2_195_JUSTAS],1.79 ± 0.024 kcal/mol
8,AATTATVTLPFAPDDLDAAVEAARELASTLPPDSRITVAVPAPDGSTGTVTATVHPDGTIDVTVSPAAAPAS [r1_350_TrMRF],1.47 ± 0.04 kcal/mol
9,SAGGSAGGSAGGPVLVKLSVSKPPGDKVIVTLSFYNPETKEVFTITVPLDFLKNIKPLFSAGGSAGGSAGGS [r10_1077_TrMRF],2.87 ± 0.13 kcal/mol
10,SAGGSAGGSNFRIIEFDIKLKIPVMKMEPDPDGKPKMEMQPVKIPIKVTIFVFGNGIFIMITFSAGGSAGGS [r20_58_TrROS],5.29 ± 0.16 kcal/mol
11,SEWVKVKVEIKMPFYNGNKPMPMSIEVEYEVPPNDPGMTPEDLPPEELAKEAIEKAYDYMRKLGLPPDMFSA [r9_516_TrROS],2.97 ± 0.12 kcal/mol
12,SAGGSAGGSAGGEVKILRVEEFEDGVVRVFVEGDDPVLVIELGPDGVILSIEEVDSSELSAGGSAGGSAGGS [r10_211_TrMRF],0.562 ± 0.034 kcal/mol
13,SAGGSAGGSAGKRYTFFIPVPPDEMTPEDLVDWIEKIFPDFKGKEIKVEVMPDGYVRIKIEYSAGGSAGGSA [r18_65_TrROS],3.89 ± 0.044 kcal/mol
14,SAGGSAKKLKITIVADSEEEARRLAEELARLLRELLPDGSELEVEIEVRVFRPPPPPLPSLEELLASAGGSA [r15_663_TrROS_Hall],3.83 ± 0.12 kcal/mol
15,SAGGSAGGSAGMVVKVKEHPITITKLPDGSWRLTHPASGKVILLPGVDEATAKAIAEELTSAGGSAGGSAGG [r11_1085_JUSTAS],1.76 ± 0.027 kcal/mol
16,SAGGSAGGSEKEIEVNGKKITIEKNEDGSYKLIIEVNGKKYEITLSLEELKKKNLTIEELLKKSAGGSAGGS [r20_90_TrROS_Hall],3.61 ± 0.13 kcal/mol
17,SAGGSAGGSAGGPYIRVLRSDGKPIVVPVRADDPELFDRVVAELEAAGYPVVKAEVLRLSAGGSAGGSAGGS [r10_231_TrMRF],0.155 ± 0.12 kcal/mol
18,SAGGSGKIKEAVEAAIENPGKTVEVTVERPDGYPVKIKVDPKTGKITLEVIHPDGTTSRKEFEIKPSAGGSA [r2_263_TrMRF],0.669 ± 0.046 kcal/mol
19,SAGGSAGGSAGWRAKVYPPGNGEPIGTIEIPKDWTPSQIKEIADDLQKKFPPGWRVEIEDSAGGSAGGSAGG [r11_1081_TrROS],0.904 ± 0.093 kcal/mol
20,SAGGSATVEEIAKYFAEQHPGMEPKSVKLDYERNPEEGVYRIKVNITMRFDDNKKHKMPVEIQFPVSAGGSA [r15_266_TrROS],0.358 ± 0.14 kcal/mol
21,SAGGSAGGSMGLNVTYTVNVTHPDGTVETFPFEFDGTPEEAEEFARAIAEAHPDVKVTVTPGASAGGSAGGS [r12_268_TrMRF],3.06 ± 0.037 kcal/mol

row,Sequence,folding stability dG unfold
1,SAGGSAKDILDQLKISDVHESNGMRTITLEMPGNNLPPDEIREIFEELGYEVEINPKNGRITFTIPSAGGSA [r15_599_TrROS],1.83 ± 0.02 kcal/mol
2,SAGGSAGGSAGGKPYIITLPNMKREVVFENSALVEFEDGSVIAAFENNVIVFFPVPEDALSAGGSAGGSAGG [r7_29_TrMRF],0.786 ± 0.093 kcal/mol
3,SAGGSAGGSSDEPLVIPVTAVFVNPETGEVTVARAEVRLPPDGGLEVDVEVEVREVEPDAPLLSAGGSAGGS [r12_116_TrMRF],1.47 ± 0.036 kcal/mol
4,SAGGSAKRVIVIGSKEERERAREAAEKENLEVVEIEGPVEEALAKLKELFPEIDEIVIVLPEEEEESAGGSA [r15_712_TrROS_Hall],0.768 ± 0.14 kcal/mol
5,SAGGSAGGSAGGMYKVTITVGGKEITIEVSEEELEELLKALEDEGYEIKEIRVEKLPEESAGGSAGGSAGGS [r10_405_TrROS_Hall],3.57 ± 0.097 kcal/mol
6,SAGGSAGGSAGGSMTTLNLTNMSPEEIEAALKANPGPVTVTTTLPGGEITTKTYTVPPGSAGGSAGGSAGGS [r10_514_JUSTAS],0.644 ± 0.12 kcal/mol
7,SAGMKYRIVIENENGEKIEFEKLEDGTIKMTIEKDGKKEEITIKVPPGMTIEELLKKFPNAKIVKIEKVSAG [r5_259_TrROS_Hall],3.45 ± 0.065 kcal/mol
8,SAGGSARPELVEYRVRIGDVEVRVVLPEGLEELLRRIPDVEVEPVRRFEAPPPPVVLERSELGDFASAGGSA [r15_443_TrMRF],1.77 ± 0.11 kcal/mol
9,SAISPTERVEATDYKSPNGAVGSTTTFPDPEGSTVSIVREGSTWRLVTVNPDGSVSEREVSPEEAAALLASA [r9_1144_JUSTAS],1.71 ± 0.065 kcal/mol
10,SAMIIIRVKSKEELEEAIRRLAEELGIEDATLEQIREALLRAGAKIVSIERDPEREDYVLIVIELPPEPSAG [r14_678_TrROS_Hall],4.1 ± 0.084 kcal/mol
11,SAGGSAMKLKLTFVADSPEQAEQLAEEYTRLNPELFPGEKDYPLEIEVYVLVAPPLVPPSPEELAGSAGGSA [r15_663_TrMRF],2.12 ± 0.27 kcal/mol
12,STAEELATYIAKTIQKRFPPGYRITDVRIERNPNGYVELPFTIEPPNGRPWTVEIWIDADNGEIEIEIQWSA [r9_219_TrROS],3.183 ± 0.017 kcal/mol
13,SAGGSAGGAPLMIMLEAEWKREPDPNGDKRRKVKLRVSIMTPRPDPDGKPNMHMISIPITFKVKSAGGSAGG [r6_224_TrROS],4.08 ± 0.07 kcal/mol
14,SAGGMKTVTIEYWGSLPDAVVLAKKAVEEAAKNKGKTVVTLYVWEGEPDENGVPRWKPLGKYVFVVDASAGG [r13_974_TrMRF],3.477 ± 0.034 kcal/mol
15,SAGGSAGGSAGGSAPNVKLKVEVVTVKVENAKITLPDGRTITLKPGDTVTITKVTLEPASAGGSAGGSAGGS [r4_26_TrROS_Hall],2.05 ± 0.085 kcal/mol
16,SAGGMKTVIVRVRRDSPEVRKALEALRKAKPGEEVELTVKGKKIRIVKIEEVDGEYYVTVEIEEEEESAGGS [r16_404_TrROS_Hall],3.96 ± 0.062 kcal/mol
17,SAGGGSVPAEHLVSVSYEKPPWSDEPVITVTALKGGKPVTFTIPSSLSEEEALEAVEKAIAAGPFALGSAGG [r13_225_JUSTAS],0.579 ± 0.13 kcal/mol
18,SSVTLTLTAPLPDNTTVTVEVTLTPLPEKGLVVANPTVTVTTLTPDADGNLTTSSAPATFTVVVPPELAFSA [r9_1137_TrMRF],2.1 ± 0.11 kcal/mol
19,SAGGSAGGSAGGPPDDWILMIEIVTITIEMKYKDGGKEVERKMEILVIEIAIIPPDDLPSAGGSAGGSAGGS [r10_300_TrROS],3.59 ± 0.29 kcal/mol
20,SAGGKVKVEIDPKTIKVTFYDEKGKKIGEIEIEVKPLPIVIENIPLEDIEALKEKFPDIPIIINPDNISAGG [r13_235_TrMRF],1.73 ± 0.17 kcal/mol
21,SAGTPEEVLQRAKELANRFQDRARDNGMDVKVDITQVEPNRIRINIEMRPPNGRRHRMPIEIELPKDDISAG [r5_994_TrROS],1.65 ± 0.036 kcal/mol

# Assay: folding stability dG unfold from trypsin proteolysis; higher = more stable
# How it was run: as §1
row,Sequence,folding stability dG unfold
1,SASLGISKIETSSLPNGTTVVTVTFSKPNLKVTLTKNPDGTITITLSPEVKKLPEEVKKLVEELAAKLSSAG [r14_555_JUSTAS],3.97 ± 0.1 kcal/mol
2,SAGGSAGGTLTIDELKELFPDVTEVKIEEKEETYTDKNGKKRKVKTKVIKVKVNGKEVTIEVKESAGGSAGG [r6_138_TrROS_Hall],1.96 ± 0.05 kcal/mol
3,SAGGSAGGSEITITLDEETGELHITVPESVKEVKIKVNGEEKTVTLKPGQTLTIPLENVEIEESAGGSAGGS [r20_26_TrROS_Hall],1.75 ± 0.11 kcal/mol
4,SAGGEPLFGGSFSAEPYRTADGRLVYIVPEVTLPNGRKARAAVIYDPSTGRPIVVLYLGDKPIVLDASAGGS [r16_766_TrMRF],1.889 ± 0.017 kcal/mol
5,SAGGSAGGAPILPEVKKIGFEKLPNGEYKVTIYVKGGKKLAEITFPPNTTIEQAVEDAIEALKSSAGGSAGG [r6_435_TrMRF],2.3 ± 0.063 kcal/mol
6,SAGGGMPTSIVLPLTVSPENVEEAIAALKAQLEAQGYTLLEVNPVKDGNTWKLRAVFRAPDGTLVTDESAGG [r13_421_JUSTAS],3.11 ± 0.079 kcal/mol
7,SAGGSMTLTFTDPSTGTTTTVTKLPNGKYVVTTTTTTSTNPEVSPTGETVGPATTTTTTVLPPAELSAGGSA [r2_195_JUSTAS],2 ± 0.12 kcal/mol
8,AATTATVTLPFAPDDLDAAVEAARELASTLPPDSRITVAVPAPDGSTGTVTATVHPDGTIDVTVSPAAAPAS [r1_350_TrMRF],0.731 ± 0.019 kcal/mol
9,SAGGSAGGSAGGPVLVKLSVSKPPGDKVIVTLSFYNPETKEVFTITVPLDFLKNIKPLFSAGGSAGGSAGGS [r10_1077_TrMRF],2.61 ± 0.11 kcal/mol
10,SAGGSAGGSNFRIIEFDIKLKIPVMKMEPDPDGKPKMEMQPVKIPIKVTIFVFGNGIFIMITFSAGGSAGGS [r20_58_TrROS],3.42 ± 0.24 kcal/mol
11,SEWVKVKVEIKMPFYNGNKPMPMSIEVEYEVPPNDPGMTPEDLPPEELAKEAIEKAYDYMRKLGLPPDMFSA [r9_516_TrROS],2.21 ± 0.19 kcal/mol
12,SAGGSAGGSAGGEVKILRVEEFEDGVVRVFVEGDDPVLVIELGPDGVILSIEEVDSSELSAGGSAGGSAGGS [r10_211_TrMRF],1.04 ± 0.044 kcal/mol
13,SAGGSAGGSAGKRYTFFIPVPPDEMTPEDLVDWIEKIFPDFKGKEIKVEVMPDGYVRIKIEYSAGGSAGGSA [r18_65_TrROS],3.08 ± 0.069 kcal/mol
14,SAGGSAKKLKITIVADSEEEARRLAEELARLLRELLPDGSELEVEIEVRVFRPPPPPLPSLEELLASAGGSA [r15_663_TrROS_Hall],3.2 ± 0.21 kcal/mol
15,SAGGSAGGSAGMVVKVKEHPITITKLPDGSWRLTHPASGKVILLPGVDEATAKAIAEELTSAGGSAGGSAGG [r11_1085_JUSTAS],1.26 ± 0.015 kcal/mol
16,SAGGSAGGSEKEIEVNGKKITIEKNEDGSYKLIIEVNGKKYEITLSLEELKKKNLTIEELLKKSAGGSAGGS [r20_90_TrROS_Hall],1.92 ± 0.072 kcal/mol
17,SAGGSAGGSAGGPYIRVLRSDGKPIVVPVRADDPELFDRVVAELEAAGYPVVKAEVLRLSAGGSAGGSAGGS [r10_231_TrMRF],-0.818 ± 0.78 kcal/mol
18,SAGGSGKIKEAVEAAIENPGKTVEVTVERPDGYPVKIKVDPKTGKITLEVIHPDGTTSRKEFEIKPSAGGSA [r2_263_TrMRF],0.807 ± 0.071 kcal/mol
19,SAGGSAGGSAGWRAKVYPPGNGEPIGTIEIPKDWTPSQIKEIADDLQKKFPPGWRVEIEDSAGGSAGGSAGG [r11_1081_TrROS],1.72 ± 0.051 kcal/mol
20,SAGGSATVEEIAKYFAEQHPGMEPKSVKLDYERNPEEGVYRIKVNITMRFDDNKKHKMPVEIQFPVSAGGSA [r15_266_TrROS],0.406 ± 0.059 kcal/mol
21,SAGGSAGGSMGLNVTYTVNVTHPDGTVETFPFEFDGTPEEAEEFARAIAEAHPDVKVTVTPGASAGGSAGGS [r12_268_TrMRF],3.06 ± 0.12 kcal/mol
